Experimental data as given in US11433139B2, “Peptide vaccines against interleukin-31” (Zoetis Services LLC, priority 2018, dated 2022).
Where no end group is shown, it is not given here.

B1: ZIL8: fully canine anti IL-31 antibody, VH SEQ ID NO: 79, VL SEQ ID NO: 81 (antibody, listed as Canis familiaris, V domains shown)
VH: EVQLVESGGDLVKPAGSLRLSCVASGFTFSDYAMSWVRQAPGRGLQWVAGIDSVGSGTSYADAVKGRFTISRDDAKNTLYLQMFNLRAEDTAIYYCASGFPGSFEHWGQGTLVTVSS
VL: QSVLTQPASVSGSLGQKVTISCTGSSSNIGSGYVGWYQQLPGTGPRTLIYYNSDRPSGVPDRFSGSRSGTTATLTISGLQAEDEADYYCSVYDRTFNAVFGGGT
B2: ZIL159: fully canine anti IL-31 antibody, VH SEQ ID NO: 103, VL SEQ ID NO: 105 (antibody, listed as Canis familiaris, V domains shown)
VH: EVQLVESGGDLVKPAGSLRLSCVASGFTFSSYVMTWVRQAPGKGLQWVAGINSEGSRTAYADAVKGRFTISRDNAKNTLYLQIDSLRAEDTAIYYCATGDIVATGTSYWGQGTLVTVSS
VL: SNVLTQPPSVSVSLGQTATISCSGETLNRFYTQWFQQKAGQAPVLVIYKDTERPSGIPDRFSGSSSGNIHTLTISGARAEDEAAYYCKSAVSIDVGVFGGGTHLTVF
B3: ZIL69: fully canine anti IL-31 antibody, VH SEQ ID NO: 91, VL SEQ ID NO: 93 (antibody, listed as Canis familiaris, V domains shown)
VH: EVQLVESGGDLVKPAGSLRLSCVASGFTFSSYAMKWVRQAPGKGLQWVATINNDGTRTGYADAVRGRFTISKDNAKNTLYLQMDSLRADDTAVYYCTKGNAESGCTGDHCPPYWGQGTLVTVSS
VL: SSVLTQPPSVSVSLGQTATISCSGESLNKYYAQWFQQKAGQAPVLVIYKDTERPSGIPDRFSGSSAGNTHTLTISGARAEDEADYYCESAVSSETNVFGSGTQLTVL
B4: ZIL171: fully canine anti IL-31 antibody, VH SEQ ID NO: 107, VL SEQ ID NO: 109 (antibody, listed as Canis familiaris, V domains shown)
VH: EVQLVESGGDLVKPAGSLRLSCVASGFTFRTYVMNWVRQAPGKGLQWVASINGGGSSPTYADAVRGRFTVSRDNAQNSLFLQMNSLRAEDTAIYFCVVSMVGPFDYWGHGTLVTVSS
VL: SSVLTQPPSVSVSLGQTATISCSGKSLSYYYAQWFQQKAGQAPVLVIYKDTERPSGIPDRFSGSSSGNTHTLTISGARAEDEADYYCESAVSSDTIVFGGGTHLTVL
B5: ZIL94: fully canine anti IL-31 antibody, VH SEQ ID NO: 95, VL SEQ ID NO: 97 (antibody, listed as Canis familiaris, V domains shown)
VH: EVQLVDSGGDLVKPGGSLRLSCVASGFTFSTYFMSWVRQAPGRGLQWVALISSDGSGTYYADAVKGRFTISRDNAKNTLYLQMNSLRAEDTAMYYCAIFWRAFNDWGQGTLVTVSS
VL: QTVVIQEPSLSVSPGGTVTLTCGLNSGSVSTSNYPGWYQQTRGRTPRTIIYDTGSRPSGVPNRFSGSISGNKAALTITGAQPEDEADYYCSLYTDSDILVFGGGTHLTVL

Experiments:
[1] = test system: mAb ZTS-361; test: Peptide block of mAb ZTS-361 inhibition of IL-31 mediated STAT3 phosphorylation in feline FCWF-4 macrophages; assay type: cell-based; conditions: for IC50, conjugated peptide: CRM197 conjugated, co-incubated 1 hour with 0.2 μM mAb ZTS-361, FCWF-4 cells
Chain of mAb ZTS-361 (as listed by the source): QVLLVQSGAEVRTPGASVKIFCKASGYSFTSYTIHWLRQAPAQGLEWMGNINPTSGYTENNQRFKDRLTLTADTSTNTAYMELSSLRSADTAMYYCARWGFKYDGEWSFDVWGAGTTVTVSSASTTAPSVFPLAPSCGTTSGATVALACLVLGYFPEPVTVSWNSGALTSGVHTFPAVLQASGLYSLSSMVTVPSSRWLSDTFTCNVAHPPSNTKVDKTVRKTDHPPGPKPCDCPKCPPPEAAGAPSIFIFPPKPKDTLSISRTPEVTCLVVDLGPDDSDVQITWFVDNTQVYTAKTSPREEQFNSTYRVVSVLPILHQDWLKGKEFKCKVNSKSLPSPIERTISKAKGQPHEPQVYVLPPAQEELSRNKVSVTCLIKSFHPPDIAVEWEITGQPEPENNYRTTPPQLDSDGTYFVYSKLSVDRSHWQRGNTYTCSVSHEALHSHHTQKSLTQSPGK
Chain of mAb ZTS-361 (as listed by the source): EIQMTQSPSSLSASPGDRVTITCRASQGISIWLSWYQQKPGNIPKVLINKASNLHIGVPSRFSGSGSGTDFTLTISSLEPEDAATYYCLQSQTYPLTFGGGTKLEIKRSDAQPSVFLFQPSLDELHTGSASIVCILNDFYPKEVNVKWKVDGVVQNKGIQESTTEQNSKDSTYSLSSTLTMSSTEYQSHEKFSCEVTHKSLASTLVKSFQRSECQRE

[2] = test system: wildtype feline IL-31; test: Indirect ELISA, binding to wildtype feline IL-31
Chain of wildtype feline IL-31 (as listed by the source): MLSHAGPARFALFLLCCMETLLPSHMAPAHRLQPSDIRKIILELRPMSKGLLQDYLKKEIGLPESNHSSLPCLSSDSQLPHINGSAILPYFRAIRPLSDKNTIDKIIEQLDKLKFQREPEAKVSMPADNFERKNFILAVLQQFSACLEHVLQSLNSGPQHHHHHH
Experimental: (§1) Mice and dogs were immunized with recombinant canine IL-31 (SEQ ID No. 155) for the purpose of identifying antibodies. Serum antibody titers from immunized animals were determined using an enzyme linked immunosorbent assay (ELISA). Canine or feline IL-31 (50 ng/well) was immobilized to polystyrene microplates and used as a capture antigen. Serum from immunized animals was diluted in phosphate buffered saline with 0.05% tween-20 (PBST). The presence of anti-IL-31 antibodies was detected with an appropriate secondary HRP labeled antibody. Following addition of a chromogenic substrate (SureBlue Reserve TMB 1-Component Microwell Peroxidase Substrate, KPL, Inc., Gaithersburg, Md.) and a ten minute incubation at room temperature (RT) the reaction was stopped with the addition of […] of 0.1 N HCl. The absorbance of each well was determined at an optical density (OD) of 450 nm. Antibodies were selected for their ability to bind canine and feline IL-31 using an ELISA. In some cases, further characterization was performed at the time of selection using an ELISA with a mutant form of the feline IL-31 protein as a capture antigen. Cells producing antibodies with desired binding and inhibitory properties were chosen for sequence analysis of RNA transcripts representing the variable heavy (VH) and variable light (VL) IgG chains.
(§2) For the indirect ELISA method, antibody binding to wildtype and feline IL-31 15H05 mutant proteins was assessed. […] In comparison, the 11E12 antibody bound to the wild-type feline IL-31 and its binding was not impacted by the mutations in the 15H05 epitope region as evidenced by the data in FIG. 4. To confirm binding, biacore analysis was performed using canine, feline, equine, human, feline 15H05 mutant, and feline 11E12 mutant IL-31 proteins as surfaces and a single test concentration of antibody. Similar to ELISA observations, all antibodies tested bound to wildtype feline IL-31. In agreement with the data described above in this section, mouse antibodies 11 E12 and 15H05 both bound to canine and feline IL-31 surfaces. […] From this group of nine fully canine antibodies, only ZIL1 and ZIL9 cross-reacted with equine IL-31. Of note, antibody 15H05 was the only one of all assayed herein that bound to canine, feline, and equine IL-31 indicating some level of epitope conservation across the three species. In contrast, none of the antibodies described herein bound to human IL-31. Additional biacore surfaces were used to verify ELISA observations showing differential binding of antibodies to wildtype feline IL-31 and two proteins with mutations in the 15H05 (15H05 mutant) or 11 E12 (11E12 mutant) epitopes. […] Differing results can be attributed to differences in the two assay methodologies.
(§3) To determine the impact of mAbs 11E12 and 15H05 ability to bind these mutant forms of feline IL-31, an indirect ELISA was run using the mutants directly coated on to an immunoassay plate. […] The minor attenuation of mAb 15H05s binding to the 11E12 mutant is likely due to translational effects of the mutations from movement of the two front helices effecting the 15H05 binding site. The mutations designed to affect mAb 15H05s binding (mutant 15H05) show a complete loss of mAb 1505s ability to bind this IL-31 mutant by ELISA. Unlike the 11E12 mutant, the changes in the random coil recognized by mAb 15H05 (mutant 15H05) had no impact on mAb 11E12 binding further supporting the distinction between the two epitopes (FIG. 6C).

[3] = test system: feline IL-31 15H05 mutant; test: Indirect ELISA, binding to feline IL-31 15H05 mutant; conditions: compared with wildtype
Chain of feline IL-31 15H05 mutant (as listed by the source, change not shown): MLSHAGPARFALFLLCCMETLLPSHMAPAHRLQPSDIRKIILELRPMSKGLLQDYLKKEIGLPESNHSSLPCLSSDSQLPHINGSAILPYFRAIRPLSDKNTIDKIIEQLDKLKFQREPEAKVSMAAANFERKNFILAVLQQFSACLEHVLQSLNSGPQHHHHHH
Experimental: as §1, §2, §3

[4] = test system: feline 11E12 mutant IL-31; test: Biacore binding, single test concentration of antibody, feline 11E12 mutant IL-31 surface
Chain of feline 11E12 mutant IL-31 (as listed by the source, stated change not applied): as the sequence (as listed by the source, change not shown) above, with D104A, I107A, A126P, A128D counted along it
Experimental: (§4) For the indirect ELISA, binding (ELISA OD) to wildtype feline IL-31 and a feline IL-31 15H05 mutant which had mutations in the monoclonal antibody 15H05 epitope region was assessed. To confirm binding, biacore analysis was performed using canine, feline, equine, human, the feline 15H05 mutant, and feline 11E12 mutant IL-31 proteins as surfaces and a single test concentration of antibody. The feline IL-31 11E12 mutant had mutations in the monoclonal antibody 11E12 epitope region.
as §2

[5] = test system: canine IL-31; test: Biacore binding, single test concentration of antibody, canine IL-31 surface
Chain of canine IL-31 (as listed by the source): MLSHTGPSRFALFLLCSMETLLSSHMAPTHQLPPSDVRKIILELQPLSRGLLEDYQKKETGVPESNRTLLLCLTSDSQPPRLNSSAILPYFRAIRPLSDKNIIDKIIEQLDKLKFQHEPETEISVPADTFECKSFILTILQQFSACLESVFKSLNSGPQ
Experimental: as §4, §2

[6] = test system: feline 15H05 mutant IL-31; test: Biacore binding, single test concentration of antibody, feline 15H05 mutant IL-31 surface
Experimental: as §4, §2

Molecule | IC50, conjugated peptide [1] | decline of potency following conjugation ([1]; conjugated vs unconjugated) | binding to wildtype feline IL-31 (ELISA) [2] | binding to feline IL-31 15H05 mutant (ELISA) [3] | binding to feline 11E12 mutant IL-31 (Biacore) [4] | binding to canine IL-31 (Biacore) [5] | binding to feline 15H05 mutant IL-31 (Biacore) [6]
ZTS-564: constrained canine IL-31 15H05 mimotope, N-TEISVPADTFERKSFILT-C plus terminal Cysteines, mT2b linker | poor potency |  |  |  |  |  | 
constrained canine IL-31 15H05 mimotope, N-EISVPADTFERKSF-C plus N and C terminal Cysteines (CEISVPADTFERKSFC; cysteine pairing not given here; also: constrained, mode not given here) [ZTS-562] | 3.024 µg/mL | approximately 3 fold |  |  |  |  | 
constrained canine IL-31 15H05 mimotope, N-TEISVPADTFERKSFILT-C plus N and C terminal Cysteines, mT2a linker [ZTS-561] | poor potency |  |  |  |  |  | 
B1 |  |  | capable of binding | binding was impacted | impacted |  | 
B2 |  |  | capable of binding | binding was impacted | impacted | dual binding property | 
B3 |  |  | capable of binding | binding was impacted |  | partial canine binding | 
B4 |  |  | capable of binding | binding was impacted |  |  | partially affected
B5 |  |  | capable of binding | binding was impacted |  | dual binding property | 
